US20080181886A1 (Genentech, published 2008)

T1: Murine APRIL (mouse, UniProt Q9D777 105-241, limits assumed)
T1 sequence (looked up): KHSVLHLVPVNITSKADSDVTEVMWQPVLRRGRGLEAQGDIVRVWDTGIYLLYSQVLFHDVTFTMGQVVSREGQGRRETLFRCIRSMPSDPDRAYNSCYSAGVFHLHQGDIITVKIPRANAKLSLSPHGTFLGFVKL


How the values were obtained:
Murine APRIL = target: T1, Murine APRIL; assay: NNS library, phage display;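 further: ligand versus display occurrence-to-degeneracy ratio and higher means enriched by binding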
Procedure: (§1) This new phage library was subjected to sorting against either BAFF, APRIL or the display target antibody. After 3 rounds of sorting, approximately 48 clones were picked from each selection and the DNA sequences of the phage clones were determined. […] The normalized F′ value corrects for display bias and is calculated as the percent occurrence to percent degeneracy ratio for ligand selection divided by the percent occurrence to percent degeneracy ratio for display efficiency. Percent occurrence is calculated by dividing the number of times a particular amino acid appeared at a particular position by the total number of amino acids sequenced at that position followed by multiplying by 100. Percent degeneracy is calculated by dividing the degeneracy in code for a particular amino acid divided by the total degeneracy possible at that position followed by multiplying by 100 (e.g., if only A, G and I were selected, total degeneracy possible would be 5).

human BAFF = human BAFF (human, UniProt Q9Y275 82-285, limits assumed); assay: NNS library, phage display;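 further: ligand versus display occurrence-to-degeneracy ratio and higher means enriched by binding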
Procedure: as §1

Sequence of human BAFF (Q9Y275 82-285 limits assumed): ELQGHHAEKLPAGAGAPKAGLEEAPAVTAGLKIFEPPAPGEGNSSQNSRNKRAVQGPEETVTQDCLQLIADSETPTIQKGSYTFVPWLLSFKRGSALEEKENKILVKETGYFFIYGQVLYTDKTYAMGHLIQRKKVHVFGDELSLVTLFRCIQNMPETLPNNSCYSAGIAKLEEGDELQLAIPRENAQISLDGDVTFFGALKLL

| Binder | F' APRIL (Murine APRIL) | F' BAFF (human BAFF) |
| --- | --- | --- |
| SLSCRKEQGKFYDHLLRDCISCASHCGQHPKQCAYFCENKLR (receptor, phage library variant, format as m9) [TACI_d2 I92H] | 0 | 0 |
| SLSCRKEQGKFQDHLLRDCISCASICGQHPKQCAYFCENKLR (receptor, phage library variant, format as m9) [TACI_d2 Y79Q] | 0 | 0 |
| SLSCRKEQGKFTDHLLRDCISCASICGQHPKQCAYFCENKLR (receptor, phage library variant, format as m9) [TACI_d2 Y79T] | 0 | 0 |
| SLSCRKEQGKFYDHLLRDCISCASSCGQHPKQCAYFCENKLR (receptor, phage library variant, format as m9) [TACI_d2 I92S] | 0 | 0 |
| SLSCRKEQGKFYDHLLRDCISCASLCGQHPKQCAYFCENKLR (receptor, phage library variant, format as m9) [TACI_d2 I92L] | 2 | 0 |
| SLSCRKEQGKFPDHLLRDCISCASICGQHPKQCAYFCENKLR (receptor, phage library variant, format as m9) [TACI_d2 Y79P] | 2 | 3 |
| SLSCRKEQGKFYDHLLDDCISCASICGQHPKQCAYFCENKLR (receptor, phage library variant, format as m9) [TACI_d2 R84D] | 9 | 0 |
| SLSCRKEQGKFIDHLLRDCISCASICGQHPKQCAYFCENKLR (receptor, phage library variant, format as m9) [TACI_d2 Y79I] | 4 | 6 |
| SLSCRKEQGKFKDHLLRDCISCASICGQHPKQCAYFCENKLR (receptor, phage library variant, format as m9) [TACI_d2 Y79K] | 0 | 0 |
| SLSCRKEQGKFYDHLLWDCISCASICGQHPKQCAYFCENKLR (receptor, phage library variant, format as m9) [TACI_d2 R84W] | 9 | 0 |
| SLSCRKEQGKFYDHLLHDCISCASICGQHPKQCAYFCENKLR (receptor, phage library variant, format as m9) [TACI_d2 R84H] | 0 | 1 |
| SLSCRKEQGKFYDHLLRDCISCASYCGQHPKQCAYFCENKLR (receptor, phage library variant, format as m9) [TACI_d2 I92Y] | 0 | 0 |
| SLSCRKEQGKFWDHLLRDCISCASICGQHPKQCAYFCENKLR (receptor, phage library variant, format as m9) [TACI_d2 Y79W] | 3 | 4 |
| SLSCRKEQGKFYDHLLEDCISCASICGQHPKQCAYFCENKLR (receptor, phage library variant, format as m9) [TACI_d2 R84E] | 3 | 0 |
| SLSCRKEQGKFLDHLLRDCISCASICGQHPKQCAYFCENKLR (receptor, phage library variant, format as m9) [TACI_d2 Y79L] | 0 | 1 |
| SLSCRKEQGKFYDHLLYDCISCASICGQHPKQCAYFCENKLR (receptor, phage library variant, format as m9) [TACI_d2 R84Y] | 0 | 1 |
| SLSCRKEQGKFYDHLLFDCISCASICGQHPKQCAYFCENKLR (receptor, phage library variant, format as m9) [TACI_d2 R84F] | 9 | 7 |
| SLSCRKEQGKFYDHLLMDCISCASICGQHPKQCAYFCENKLR (receptor, phage library variant, format as m9) [TACI_d2 R84M] | 18 | 7 |
| SLSCRKEQGKFYDHLLSDCISCASICGQHPKQCAYFCENKLR (receptor, phage library variant, format as m9) [TACI_d2 R84S] | 0 | 0 |
| SLSCRKEQGKFYDHLLQDCISCASICGQHPKQCAYFCENKLR (receptor, phage library variant, format as m9) [TACI_d2 R84Q] | 0 | 0 |
| SLSCRKEQGKFMDHLLRDCISCASICGQHPKQCAYFCENKLR (receptor, phage library variant, format as m9) [TACI_d2 Y79M] | 0 | 0 |
| SLSCRKEQGKFEDHLLRDCISCASICGQHPKQCAYFCENKLR (receptor, phage library variant, format as m9) [TACI_d2 Y79E] | 8 | 0 |

| Binder | F' APRIL (Murine APRIL) | F' BAFF (human BAFF) |
| --- | --- | --- |
| SLSCRKEQGKFYDHLLRDCISCASNCGQHPKQCAYFCENKLR (receptor, phage library variant, format as m9) [TACI_d2 I92N] | 0 | 0 |
| SLSCRKEQGKFYDHLLRDCISCASWCGQHPKQCAYFCENKLR (receptor, phage library variant, format as m9) [TACI_d2 I92W] | 0 | 0 |
| SLSCRKEQGKFNDHLLRDCISCASICGQHPKQCAYFCENKLR (receptor, phage library variant, format as m9) [TACI_d2 Y79N] | 0 | 0 |
| SLSCRKEQGKFYDHLLRDCISCASQCGQHPKQCAYFCENKLR (receptor, phage library variant, format as m9) [TACI_d2 I92Q] | 0 | 0 |
| SLSCRKEQGKFHDHLLRDCISCASICGQHPKQCAYFCENKLR (receptor, phage library variant, format as m9) [TACI_d2 Y79H] | 0 | 0 |
| SLSCRKEQGKFYDHLLTDCISCASICGQHPKQCAYFCENKLR (receptor, phage library variant, format as m9) [TACI_d2 R84T] | 0 | 3 |
| SLSCRKEQGKFYDHLLRDCISCASPCGQHPKQCAYFCENKLR (receptor, phage library variant, format as m9) [TACI_d2 I92P] | 0 | 0 |
| SLSCRKEQGKFYDHLLIDCISCASICGQHPKQCAYFCENKLR (receptor, phage library variant, format as m9) [TACI_d2 R84I] | 0 | 0 |
| SLSCRKEQGKFYDHLLRDCISCASKCGQHPKQCAYFCENKLR (receptor, phage library variant, format as m9) [TACI_d2 I92K] | 0 | 0 |
| SLSCRKEQGKFCDHLLRDCISCASICGQHPKQCAYFCENKLR (receptor, phage library variant, format as m9) [TACI_d2 Y79C] | 0 | 0 |
| SLSCRKEQGKFFDHLLRDCISCASICGQHPKQCAYFCENKLR (receptor, phage library variant, format as m9) [TACI_d2 Y79F] | 4 | 5 |
| SLSCRKEQGKFRDHLLRDCISCASICGQHPKQCAYFCENKLR (receptor, phage library variant, format as m9) [TACI_d2 Y79R] | 0 | 0 |
| SLSCRKEQGKFYDHLLKDCISCASICGQHPKQCAYFCENKLR (receptor, phage library variant, format as m9) [TACI_d2 R84K] | 0 | 1 |
| SLSCRKEQGKFYDHLLRDCISCASMCGQHPKQCAYFCENKLR (receptor, phage library variant, format as m9) [TACI_d2 I92M] | 0 | 0 |
| SLSCRKEQGKFYDHLLCDCISCASICGQHPKQCAYFCENKLR (receptor, phage library variant, format as m9) [TACI_d2 R84C] | 0 | 0 |
| SLSCRKEQGKFYDHLLRDCISCASRCGQHPKQCAYFCENKLR (receptor, phage library variant, format as m9) [TACI_d2 I92R] | 0 | 0 |
| SLSCRKEQGKFVDHLLRDCISCASICGQHPKQCAYFCENKLR (receptor, phage library variant, format as m9) [TACI_d2 Y79V] | 0 | 2 |
| SLSCRKEQGKFGDHLLRDCISCASICGQHPKQCAYFCENKLR (receptor, phage library variant, format as m9) [TACI_d2 Y79G] | 0 | 0 |
| SLSCRKEQGKFYDHLLNDCISCASICGQHPKQCAYFCENKLR (receptor, phage library variant, format as m9) [TACI_d2 R84N] | 0 | 1 |
| SLSCRKEQGKFYDHLLLDCISCASICGQHPKQCAYFCENKLR (receptor, phage library variant, format as m9) [TACI_d2 R84L] | 3 | 2 |
| SLSCRKEQGKFYDHLLVDCISCASICGQHPKQCAYFCENKLR (receptor, phage library variant, format as m9) [TACI_d2 R84V] | 4 | 2 |
